This is an account of results in publication doi:10.1101/368936.

The target of experiment [1] is Mdb1-pT113 phosphopeptide (fluorescein-labelled) (S. pombe). Briefly: fluorescence polarisation.
Experiment [2] deals with RHNO1-pT202 phospho-peptide (human). Put plainly: fluorescence polarisation. On the technique in general: Polarisation of emitted light reports the rotation of a fluorescent probe.

For the substance Rad4-BRCT1,2 K155E (domain or fragment), the fold reduction of binding against wild type in experiment [1] turned out to be 20 fold.
In the case of “TOPBP1-BRCT0,1,2 segment (wild type, recombinant) (domain or fragment)”, the fold tighter binding than RAD9-pS387 in experiment [2] stood at 10 fold.
